How the values were obtained:
[1] = target: biotinylated RSK1 725-735 peptide, unphosphorylated (human) (UniProt Q15418); assay: holdup assay
[2] = target: biotinylated RSK1 725-735 peptide, phosphorylated at Ser732 (position -3) (human) (UniProt Q15418); assay: holdup assay
Chain of biotinylated RSK1 725-735 peptide, phosphorylated at Ser732 (position -3) (human) (Q15418 whole entry, looked up, tested part not stated): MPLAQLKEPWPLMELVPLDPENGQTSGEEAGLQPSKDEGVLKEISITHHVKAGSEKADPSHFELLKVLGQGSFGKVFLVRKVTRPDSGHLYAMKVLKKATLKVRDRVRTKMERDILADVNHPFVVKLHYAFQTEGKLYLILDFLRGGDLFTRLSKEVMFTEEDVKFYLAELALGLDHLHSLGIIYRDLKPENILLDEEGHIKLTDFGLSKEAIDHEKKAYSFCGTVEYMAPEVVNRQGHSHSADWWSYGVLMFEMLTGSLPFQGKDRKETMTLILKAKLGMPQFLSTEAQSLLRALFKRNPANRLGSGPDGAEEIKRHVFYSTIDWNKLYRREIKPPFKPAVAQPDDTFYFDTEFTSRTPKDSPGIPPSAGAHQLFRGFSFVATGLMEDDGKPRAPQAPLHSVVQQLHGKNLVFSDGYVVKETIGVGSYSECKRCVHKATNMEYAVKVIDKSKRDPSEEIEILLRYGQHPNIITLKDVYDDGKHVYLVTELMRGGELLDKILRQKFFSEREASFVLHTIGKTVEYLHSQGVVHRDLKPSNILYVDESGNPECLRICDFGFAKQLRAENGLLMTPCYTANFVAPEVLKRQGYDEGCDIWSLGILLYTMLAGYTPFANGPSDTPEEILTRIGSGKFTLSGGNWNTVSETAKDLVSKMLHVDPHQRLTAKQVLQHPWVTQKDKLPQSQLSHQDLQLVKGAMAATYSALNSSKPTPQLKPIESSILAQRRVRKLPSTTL

Chain of biotinylated RSK1 725-735 peptide, unphosphorylated (human) (Q15418 whole entry, looked up, tested part not stated): as above

| Substance | BI [1] | Kd [1] [µM] | Kd [2] [µM] | BI [2] |
| --- | --- | --- | --- | --- |
| PDZ domain 3 of DFNB31 (from UniProt Q9P202 816-899) (domain or fragment) | 0.23 | 53.8 | > 100 |  |
| MBP-fused PDZ domain 2 of MAGI2 (from UniProt Q86UL8 426-510) (domain or fragment) | 0.42 | 21.2 | 53.8 | 0.23 |
| PDZ domain of PTPN3 (from UniProt P26045 510-582) (domain or fragment) |  | > 100 | 60.8 | 0.21 |
| MBP-fused PDZ domain 1 of NHERF3 (from UniProt Q5T2W1 9-90) (domain or fragment) | 0.41 | 22.1 | > 100 |  |
| MBP-fused second PDZ domain of MAGI1 (from UniProt Q96QZ7 472-554) (domain or fragment) | 0.43 | 20.3 | 92.9 | 0.15 |
| PDZ domain of GORASP1 (domain or fragment) |  | > 100 |  |  |
| PDZ domain of LAP2 (from UniProt Q96RT1 1321-1410) (domain or fragment) |  | > 100 | 40.8 | 0.28 |
| MBP-fused PDZ domain of SNTA1 (from UniProt Q13424 87-170) (domain or fragment) | 0.31 | 35.1 | 13.2 | 0.53 |
| MBP-fused PDZ domain of MAST1 (from UniProt Q9Y2H9 967-1055) (domain or fragment) | 0.57 | 11.1 | > 100 |  |
| PDZ domain of PPP1R9A (from UniProt Q9ULJ8 504-592) (domain or fragment) |  | > 100 | 31.8 | 0.33 |
| PDZ domain of SHROOM2 (from UniProt Q13796 26-108) (domain or fragment) |  | > 100 | 60.8 | 0.21 |
| PDZ domain 1 of GRID2IP (from UniProt A4D2P6 3-84) (domain or fragment) |  | > 100 | 50.8 | 0.24 |
| PDZ domain 3 of LNX1 (from UniProt Q8TBB1 507-593) (domain or fragment) |  | > 100 | 50.8 | 0.24 |
| MBP-fused PDZ domain 1 of PDZRN3 (from UniProt Q9UPQ7 249-339) (domain or fragment) | 0.26 | 45.4 | 18.6 | 0.45 |
| PDZ domain 2 of NHERF2 (from UniProt Q15599 150-230) (domain or fragment) |  | 64.8 | > 100 |  |
| PDZ domain 2 of DLG4 (from UniProt P78352 160-246) (domain or fragment) | 0.11 | > 100 |  | 0.25 |
| PDZ domain of SHANK3 (from UniProt Q9BYB0 646-740) (domain or fragment) | 0.27 |  | > 100 |  |
| PDZ domain of GRASP (from UniProt Q7Z6J2 101-190) (domain or fragment) | 0.29 | 38.8 | > 100 |  |
| PDZ domain of ARHGEF11 (from UniProt O15085 47-126) (domain or fragment) | 0.28 | 40.8 | > 100 |  |
| PDZ domain of LIMK2 (from UniProt P53671 152-239) (domain or fragment) |  | > 100 | 57.2 | 0.22 |
| MBP-fused PDZ domain of HTRA1 (from UniProt Q92743 365-467) (domain or fragment) | 0.44 | 19.4 | 27.7 | 0.36 |
